Like-named read-outs stand apart in the source and are kept apart here.
System: SARS-CoV-2
Conditions: for All cause death or hospitalization for COVID-19: Bayes prob, Dichotomous / All cause death or hospitalization for COVID-19: Bayes prob, TTE / All cause death or hospitalization for COVID-19: HR (95% CrI), TTE / All cause death or hospitalization for COVID-19: RR (95% CrI), Dichotomous / ER visit ≥6 h or hospitalization due to COVID-19: Bayes prob, Dichotomous / ER visit ≥6 h or hospitalization due to COVID-19: Bayes prob, TTE / ER visit ≥6 h or hospitalization due to COVID-19: HR (95% CrI), TTE / ER visit ≥6 h or hospitalization due to COVID-19: RR (95% CrI), Dichotomous: vs placebo
[1] = ITT preliminary, n=916 vs placebo 1020, 28 days
[2] = ITT preliminary, n=916 vs placebo 1020, 28 days, listed as Interferon lambda
[3] = ITT preliminary, n=916 vs placebo 1020, 28 days, listed as Lambda
[4] = Treated within 3 days of symptom onset, n=539 vs placebo 586
[5] = Treated within 5 days of symptom onset, n=800 vs placebo 879

B1: pegylated interferon lambda-1a (protein)
chain: MKPTTTGKGCHIGRFKSLSPQELASFKKARDALEESLKLKNWSCSSPVFPGNWDLRLLQVRERPVALEAELALTLKVLEAAAGPALEDVLDQPLHTLHHILSQLQACIQPQPTAGPRPRGRLHHWLHRLQEAPKKESAGCLEASVTFNLFRLLTRDLKYVADGNLSLRTSTHPEST
modifications: PEG
notes: 180 mcg subcutaneous injection
Q: What does the source list for B1?
A: Death or hospitalization due to COVID-19, % of patients [1]: (2.4%); Death or hospitalization due to COVID-19, RR (95% CrI) vs placebo [1]: 0.61 (0.36, 0.99); Hospitalization for COVID-19, RR (95% CrI) vs placebo [1]: 0.58 (0.34, 0.95); Hospitalization or ER (any duration) for COVID-19, % of patients [1]: (10.6%); Hospitalization or ER (any duration) for COVID-19, Pr (Superiority) [1]: 0.984; Hospitalization or ER (any duration) for COVID-19, RR (95% CrI) vs placebo [1]: 0.77 (0.60, 0.98); Hospitalization or ER ≥6 h for COVID-19, Pr (Superiority) [1]: 0.999; Hospitalization or ER ≥6 h for COVID-19, RR (95% CrI) vs placebo [1]: 0.50 (0.31, 0.77); Death due to COVID-19, % of patients [2]: (0.1%); Hospitalization for COVID-19, % of patients [2]: (2.3%); Hospitalization or ER ≥6 h for COVID-19, % of patients [2]: (2.7%); Death due to COVID-19, % of patients [3]: 0.1%; Hospitalization for COVID-19, % of patients [3]: 2.3%; Hospitalization or ER ≥6 h for COVID-19, % of patients [3]: 2.7%; All cause death or hospitalization for COVID-19: events/patients (Omicron and not vaccinated): 0/9; ER visit ≥6 h or hospitalization due to COVID-19: events/patients (Omicron and not vaccinated): 0/9; All cause death or hospitalization for COVID-19: Bayes prob, Dichotomous (Omicron and not vaccinated): 0.532; All cause death or hospitalization for COVID-19: Bayes prob, TTE (Omicron and not vaccinated): 0.912; All cause death or hospitalization for COVID-19: HR (95% CrI), TTE (Omicron and not vaccinated): 0.00 (0.00, 4.43); All cause death or hospitalization for COVID-19: RR (95% CrI), Dichotomous (Omicron and not vaccinated): 0.90 (0.03, 10.04); ER visit ≥6 h or hospitalization due to COVID-19: Bayes prob, Dichotomous (Omicron and not vaccinated): 0.532; ER visit ≥6 h or hospitalization due to COVID-19: Bayes prob, TTE (Omicron and not vaccinated): 0.912; ER visit ≥6 h or hospitalization due to COVID-19: HR (95% CrI), TTE (Omicron and not vaccinated): 0.00 (0.00, 4.43); ER visit ≥6 h or hospitalization due to COVID-19: RR (95% CrI), Dichotomous (Omicron and not vaccinated): 0.90 (0.03, 10.04); All cause death or hospitalization for COVID-19: events/patients (Omicron and onset ≤3 days): 0/281; ER visit ≥6 h or hospitalization due to COVID-19: events/patients (Omicron and onset ≤3 days): 0/281; All cause death or hospitalization for COVID-19: Bayes prob, Dichotomous (Omicron and onset ≤3 days): 0.977; All cause death or hospitalization for COVID-19: Bayes prob, TTE (Omicron and onset ≤3 days): 0.9982; All cause death or hospitalization for COVID-19: HR (95% CrI), TTE (Omicron and onset ≤3 days): 0.00 (0.00, 0.35); All cause death or hospitalization for COVID-19: RR (95% CrI), Dichotomous (Omicron and onset ≤3 days): 0.14 (0.00, 0.96); ER visit ≥6 h or hospitalization due to COVID-19: Bayes prob, Dichotomous (Omicron and onset ≤3 days): 0.998; ER visit ≥6 h or hospitalization due to COVID-19: Bayes prob, TTE (Omicron and onset ≤3 days): 0.9999; ER visit ≥6 h or hospitalization due to COVID-19: HR (95% CrI), TTE (Omicron and onset ≤3 days): 0.00 (0.00, 0.17); ER visit ≥6 h or hospitalization due to COVID-19: RR (95% CrI), Dichotomous (Omicron and onset ≤3 days): 0.08 (0.00, 0.50); All cause death or hospitalization for COVID-19: events/patients (Omicron and vaccinated): 2/428; ER visit ≥6 h or hospitalization due to COVID-19: events/patients (Omicron and vaccinated): 2/428; All cause death or hospitalization for COVID-19: Bayes prob, Dichotomous (Omicron and vaccinated): 0.876; All cause death or hospitalization for COVID-19: Bayes prob, TTE (Omicron and vaccinated): 0.911; All cause death or hospitalization for COVID-19: HR (95% CrI), TTE (Omicron and vaccinated): 0.34 (0.05, 1.52); All cause death or hospitalization for COVID-19: RR (95% CrI), Dichotomous (Omicron and vaccinated): 0.46 (0.09, 1.69); ER visit ≥6 h or hospitalization due to COVID-19: Bayes prob, Dichotomous (Omicron and vaccinated): 0.999; ER visit ≥6 h or hospitalization due to COVID-19: Bayes prob, TTE (Omicron and vaccinated): 0.9998; ER visit ≥6 h or hospitalization due to COVID-19: HR (95% CrI), TTE (Omicron and vaccinated): 0.11 (0.02, 0.42); ER visit ≥6 h or hospitalization due to COVID-19: RR (95% CrI), Dichotomous (Omicron and vaccinated): 0.17 (0.04, 0.53); All cause death or hospitalization for COVID-19: events/patients (Omicron subgroup): 2/439; ER visit ≥6 h or hospitalization due to COVID-19: events/patients (Omicron subgroup): 2/439; All cause death or hospitalization for COVID-19: Bayes prob, Dichotomous (Omicron subgroup): 0.914; All cause death or hospitalization for COVID-19: Bayes prob, TTE (Omicron subgroup): 0.9477; All cause death or hospitalization for COVID-19: HR (95% CrI), TTE (Omicron subgroup): 0.29 (0.04, 1.27); All cause death or hospitalization for COVID-19: RR (95% CrI), Dichotomous (Omicron subgroup): 0.41 (0.08, 1.45); ER visit ≥6 h or hospitalization due to COVID-19: Bayes prob, Dichotomous (Omicron subgroup): >0.9999; ER visit ≥6 h or hospitalization due to COVID-19: Bayes prob, TTE (Omicron subgroup): 0.9999; ER visit ≥6 h or hospitalization due to COVID-19: HR (95% CrI), TTE (Omicron subgroup): 0.11 (0.02, 0.43); ER visit ≥6 h or hospitalization due to COVID-19: RR (95% CrI), Dichotomous (Omicron subgroup): 0.17 (0.04, 0.50); risk reduction, hospitalization alone (Phase 3 study, single s.c. dose within 7 days of symptom onset): 44%; Log odds (95% CrI) vs Placebo, Bayesian logistic regression (Table 11 Model 1: Treatment alone): −0.69 (−1.17, −0.26); Log odds vs Placebo, Bayesian logistic regression (Table 11 Model 2: Unvaccinated as an effect-modifier): −0.67; OR (95% CrI) vs Placebo, Bayesian logistic regression (Table 12 Model 1: Treatment alone): 0.50 (0.31, 0.77); OR (95% CrI) vs Placebo, Bayesian logistic regression (Table 12 Model 2: Treatment + Vaccination): 0.49 (0.29, 0.78); OR (95% CrI) vs Placebo, Bayesian logistic regression (Table 12 Model 3: Treatment + Vaccination + Early onset (≤3 days)): 0.48 (0.29, 0.77); OR (95% CrI) vs Placebo, Bayesian logistic regression (Table 12 Model 4: Treatment + Vaccination + Early onset (≤5 days)): 0.48 (0.29, 0.77); Death due to COVID-19, % of patients [4]: (0%); Death due to COVID-19, RR (95% CrI) vs placebo [4]: 0.21 (0.01, 1.66); Death or hospitalization due to COVID-19, % of patients [4]: (1.5%); Death or hospitalization due to COVID-19, RR (95% CrI) vs placebo [4]: 0.40 (0.18, 0.83); Hospitalization for COVID-19, % of patients [4]: (1.5%); Hospitalization for COVID-19, RR (95% CrI) vs placebo [4]: 0.40 (0.18, 0.82); Hospitalization or ER (any duration) for COVID-19, % of patients [4]: (10%); Hospitalization or ER (any duration) for COVID-19, Pr (Superiority) [4]: 0.964; Hospitalization or ER (any duration) for COVID-19, RR (95% CrI) vs placebo [4]: 0.75 (0.54, 1.03); Hospitalization or ER ≥6 h for COVID-19, % of patients [4]: (2%); Hospitalization or ER ≥6 h for COVID-19, Pr (Superiority) [4]: 0.996; Hospitalization or ER ≥6 h for COVID-19, RR (95% CrI) vs placebo [4]: 0.43 (0.21, 0.81); Death due to COVID-19, % of patients [5]: (0.1%); Death due to COVID-19, RR (95% CrI) vs placebo [5]: 0.39 (0.05, 1.96); Death or hospitalization due to COVID-19, % of patients [5]: (2.2%); Death or hospitalization due to COVID-19, RR (95% CrI) vs placebo [5]: 0.56 (0.32, 0.96); Hospitalization for COVID-19, % of patients [5]: (2.1%); Hospitalization for COVID-19, RR (95% CrI) vs placebo [5]: 0.53 (0.29, 0.91); Hospitalization or ER (any duration) for COVID-19, % of patients [5]: (10.2%); Hospitalization or ER (any duration) for COVID-19, Pr (Superiority) [5]: 0.992

Source: US20230201308A1, “TREATMENT OF CORONAVIRUS INFECTION WITH […]” (Eiger Biopharmaceuticals, Inc., priority 2020, published 2023)
